Data set [1] has as its system HeLa Kyoto. Description: thermal stability score vs G1/S (z-score of summed log2 fold changes over temperatures); higher = more thermally stable than in G1/S.
The test system of data set [2] is HeLa Kyoto. Description: melting temperature (median over replicates), in situ; higher = more thermally stable.
In data set [3] the test system is HeLa Kyoto. Description: solubility in G1/S (NP-40 vs SDS abundance) (log2 ratio); higher = more soluble. Particulars: cell cycle stage: G1/S.
The test system of data set [4] is HeLa Kyoto. Description: solubility change mitosis vs G1/S (difference of NP-40 vs SDS log2 ratios) (log2 ratio difference); higher = more soluble in mitosis.
[5] abbreviates: cell cycle stage: early G1 (4.5 h after nocodazole release).
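Throughout, for melting temperature (median over replicates), in situ: HeLa Kyoto cells synchronized by double thymidine or nocodazole block, proteins quantified by TMT10plex mass spectrometry, three independent biological replicates.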
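Throughout, for solubility change mitosis vs G1/S (difference of NP-40 vs SDS log2 ratios): synchronized HeLa Kyoto cells (double thymidine block for G1/S, nocodazole release for mitosis), protein amounts in NP-40 versus SDS lysates quantified by mass spectrometry, three biological replicates.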
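Throughout, for solubility in G1/S (NP-40 vs SDS abundance): HeLa Kyoto cells arrested at G1/S by double thymidine block, proteins quantified by TMT10plex mass spectrometry in mild NP-40 versus SDS extracts, three biological replicates.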
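Throughout, for thermal stability score vs G1/S (z-score of summed log2 fold changes over temperatures): synchronized HeLa Kyoto cells, proteins quantified by TMT10plex mass spectrometry, three biological replicates, mitosis taken 0.5 h after nocodazole release, G1/S directly after double thymidine block.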

In the case of “MPSSLLGAAMPASTSAAALQEALENAGRLIDRQLQEDRMYPDLSELLMVSAPNNPTVSGMSDMDYPLQGPGLLSVPNLPEISSIRRVPLPPELVEQFGHMQCNCMMGVFPPISRAWLTIDSDIFMWNYEDGGDLAYFDGLSETILAVGLVKPKAGIFQPHVRHLLVLATPVDIVILGLSYANLQTGSGVLNDSLSGGMQLLPDPLYSLPTDNTYLLTITSTDNGRIFLAGKDGCLYEVAYQAEAGWFSQRCRKINHSKSSLSFLVPSLLQFTFSEDDPILQIAIDNSRNILYTRSEKGVIQVYDLGQDGQGMSRVASVSQNAIVSAAGNIARTIDRSVFKPIVQIAVIENSESLDCQLLAVTHAGVRLYFSTCPFRQPLARPNTLTLVHVRLPPGFSASSTVEKPSKVHRALYSKGILLMAASENEDNDILWCVNHDTFPFQKPMMETQMTAGVDGHSWALSAIDELKVDKIITPLNKDHIPITDSPVVVQQHMLPPKKFVLLSAQGSLMFHKLRPVDQLRHLLVSNVGGDGEEIERFFKLHQEDQACATCLILACSTAACDREVSAWATRAFFRYGGEAQMRFPTTLPPPSNVGPILGSPVYSSSPVPSGSPYPNPSFLGTPSHGIQPPAMSTPVCALGNPATQATNMSCVTGPEIVYSGKHNGICIYFSRIMGNIWDASLVVERIFKSGNREITAIESSVPCQLLESVLQELKGLQEFLDRNSQFAGGPLGNPNTTAKVQQRLIGFMRPENGNPQQMQQELQRKFHEAQLSEKISLQAIQQLVRKSYQALALWKLLCEHQFTIIVAELQKELQEQLKITTFKDLVIRDKELTGALIASLINCYIRDNAAVDGISLHLQDICPLLYSTDDAICSKANELLQRSRQVQNKTEKERMLRESLKEYQKISNQVDLSNVCAQYRQVRFYEGVVELSLTAAEKKDPQGLGLHFYKHGEPEEDIVGLQAFQERLNSYKCITDTLQELVNQSKAAPQSPSVPKKPGPPVLSSDPNMLSNEEAGHHFEQMLKLSQRSKDELFSIALYNWLIQVDLADKLLQVASPFLEPHLVRMAKVDQNRVRYMDLLWRYYEKNRSFSNAARVLSRLADMHSTEISLQQRLEYIARAILSAKSSTAISSIAADGEFLHELEEKMEVARIQLQIQETLQRQYSHHSSVQDAVSQLDSELMDITKLYGEFADPFKLAECKLAIIHCAGYSDPILVQTLWQDIIEKELSDSVTLSSSDRMHALSLKIVLLGKIYAGTPRFFPLDFIVQFLEQQVCTLNWDVGFVIQTMNEIGVPLPRLLEVYDQLFKSRDPFWNRMKKPLHLLDCIHVLLIRYVENPSQVLNCERRRFTNLCLDAVCGYLVELQSMSSSVAVQAITGNFKSLQAKLERLH [NUP155]”, the thermal stability score was -2.62 in data set [1] (setting [5]) and -3.4 in data set [1] (cell cycle stage: mitosis). Besides, the melting temperature turned out to be 50.6 °C in data set [2] (cell cycle stage: G1/S) and 48.8 °C in data set [2] (cell cycle stage: mitosis). In addition, in data set [3], the “solubility in G1/S (log2)” value is -0.247. In addition, in data set [4], the “solubility change mitosis (log2)” value was -0.126.
With “MMLSTEGREGFVVKVRGLPWSCSADEVMRFFSDCKIQNGTSGIRFIYTREGRPSGEAFVELESEEEVKLALKKDRETMGHRYVEVFKSNSVEMDWVLKHTGPNSPDTANDGFVRLRGLPFGCSKEEIVQFFSGLEIVPNGMTLPVDFQGRSTGEAFVQFASQEIAEKALKKHKERIGHRYIEIFKSSRAEVRTHYDPPRKLMAMQRPGPYDRPGAGRGYNSIGRGAGFERMRRGAYGGGYGGYDDYGGYNDGYGFGSDRFGRDLNYCFSGMSDHRYGDGGSSFQSTTGHCVHMRGLPYRATENDIYNFFSPLNPMRVHIEIGPDGRVTGEADVEFATHEDAVAAMAKDKANMQHRYVELFLNSTAGTSGGAYDHSYVELFLNSTAGASGGAYGSQMMGGMGLSNQSSYGGPASQQLSGGYGGGYGGQSSMSGYDQVLQENSSDYQSNLA [HNRNPH2]”, the figures for the thermal stability score in data set [1] (setting [5]) and in data set [1] (cell cycle stage: mitosis) were 1.83 and 2.38, respectively. The melting temperature in data set [2] (cell cycle stage: G1/S) stood at 45 °C; in data set [2] (cell cycle stage: mitosis), 45.2 °C. Moreover, the “solubility in G1/S (log2)” value in data set [3] is -0.272. For the same substance, in data set [4], the “solubility change mitosis (log2)” value is -0.0078.
In the case of “MLLTVYCVRRDLSEVTFSLQVDADFELHNFRALCELESGIPAAESQIVYAERPLTDNHRSLASYGLKDGDVVILRQKENADPRPPVQFPNLPRIDFSSIAVPGTSSPRQRQPPGTQQSHSSPGEITSSPQGLDNPALLRDMLLANPHELSLLKERNPPLAEALLSGDLEKFSRVLVEQQQDRARREQERIRLFSADPFDLEAQAKIEEDIRQQNIEENMTIAMEEAPESFGQVVMLYINCKVNGHPVKAFVDSGAQMTIMSQACAERCNIMRLVDRRWAGIAKGVGTQKIIGRVHLAQVQIEGDFLPCSFSILEEQPMDMLLGLDMLKRHQCSIDLKKNVLVIGTTGSQTTFLPEGELPECARLAYGAGREDVRPEEIADQELAEALQKSAEDAERQKP [DDI2]”, the figures for the thermal stability score in data set [1] (setting [5]) and in data set [1] (cell cycle stage: mitosis) were -0.385 and 0.166, respectively. Besides, the melting temperature stood at 52.8 °C in data set [2] (cell cycle stage: G1/S) and 53 °C in data set [2] (cell cycle stage: mitosis). In addition, the “solubility in G1/S (log2)” value in data set [3] worked out at 0.489. Besides, in data set [4], the “solubility change mitosis (log2)” value was -0.11.
Take MED14: the thermal stability score is 0.0685 in data set [1] (setting [5]) and 1.11 in data set [1] (cell cycle stage: mitosis). The results for the melting temperature in data set [2] (cell cycle stage: G1/S) and in data set [2] (cell cycle stage: mitosis) were 48.7 °C and 50.1 °C, respectively. Also, in data set [3], the “solubility in G1/S (log2)” value is -0.117. Moreover, the “solubility change mitosis (log2)” value in data set [4] was -0.0671.
Consider “MKLSLTKVVNGCRLGKIKNLGKTGDHTMDIPGCLLYTKTGSAPHLTHHTLHNIHGVPAMAQLTLSSLAEHHEVLTEYKEGVGKFIGMPESLLYCSLHDPVSPCPAGYVTNKSVSVWSVAGRVEMTVSKFMAIQKALQPDWFQCLSDGEVSCKEATSIKRVRKSVDRSLLFLDNCLRLQEESEVLQKSVIIGVIEGGDVMEERLRSARETAKRPVGGFLLDGFQGNPTTLEARLRLLSSVTAELPEDKPRLISGVSRPDEVLECIERGVDLFESFFPYQVTERGCALTFSFDYQPNPEETLLQQNGTQEEIKCMDQIKKIETTGCNQEITSFEINLKEKKYQEDFNPLVRGCSCYCCKNHTRAYIHHLLVTNELLAGVLLMMHNFEHYFGFFHYIREALKSDKLAQLKELIHRQAS [QTRTD1]”, for which the thermal stability score in data set [1] (setting [5]) is -0.725; in data set [1] (cell cycle stage: mitosis), -2.32. Also, the melting temperature turned out to be 54.6 °C in data set [2] (cell cycle stage: G1/S) and 54.3 °C in data set [2] (cell cycle stage: mitosis). Further, the “solubility in G1/S (log2)” value in data set [3] came out at 0.116. For the same substance, in data set [4], the “solubility change mitosis (log2)” value is -0.121.

The record behind these values is the supplement of paper PMC5998384.
